Tested on: MS2 coat protein
Assay: apparent KD of MS2 coat protein; higher = weaker reporter binding
Conditions: Eterna round: R107
How it was run: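 Illumina sequencing clusters served as templates for on-chip transcription of the designed RNA switches. SNAP-549-labelled MS2 coat protein was then titrated in twofold steps from 0.7 or 1.5 nM to 3 µM, allowing 0.8–1.5 h per step at first and 10–20 min per step later. The buffer held 100 mM Tris-HCl pH 7.5, 80 mM KCl and 4 mM MgCl2, without or with constant ligand. Apparent KD is the median per design of normalised cluster binding-curve fits.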

[1] = input ligand: theophylline 20 uM
[2] = input ligand: tryptophan 2.4 mM
[3] = input ligand: theophylline 2 mM

Sequence: AUAAGUAAUGUUACGUGUUUAAUUGCAGAUACCAGACUAUACGUUGUCCCUUGGCAGCUGAAUUACAUGAGGAUCACCCAUGUUG [JR_ExcTheophyA_Sub005]
- apparent KD of MS2 coat protein (input ligand: arginine 13.2 mM): 19.4 nM
- apparent KD of MS2 coat protein [1]: 28.5 nM
- apparent KD of MS2 coat protein [2]: 25.7 nM

Sequence: CAGCACAUGAGGAUCACCCAUGUGAGGGAUACCAGCUCAGGCGUGGGCCCUUGGCAGCUCUCUGGCUGACGAAAGUCAGCCUGUG [#20 SameState-TheophyllineA]
- apparent KD of MS2 coat protein (input ligand: arginine 13.2 mM): 14.4 nM
- apparent KD of MS2 coat protein [1]: 24.2 nM
- apparent KD of MS2 coat protein [2]: 13.6 nM

Sequence: ACAUGAGGAUCACCCAUGUCACGGCACGAUACCAGCUGAUGCGGUGGCCCUUGGCAGCGUGACGUUUGGUCCCGCGGAUGACACG [qsmullin]
- apparent KD of MS2 coat protein (input ligand: arginine 13.2 mM): 86.4 nM
- apparent KD of MS2 coat protein [1]: 280 nM
- apparent KD of MS2 coat protein [2]: 240 nM

Sequence: GCACGGGCGAUCGGCACUUUUACUAAUAUACGAGGACCGGUACGGCCGCCACUCGAGCUAAGACAUGAGGAUCACCCAUGUAACG [theeternabot_exclusion_MS2_Trp_A_41]
- apparent KD of MS2 coat protein (input ligand: arginine 13.2 mM): 22 nM
- apparent KD of MS2 coat protein [1]: 30 nM
- apparent KD of MS2 coat protein [3]: 30.4 nM

Sequence: GUACAUGAGGAUCACCCAUGUAUAGUUGAAGGAGCGACCAGAGGGUCAGGUAGGUCGCAGCACAUGGCGUAAACCCGUGUAUGCC [#1 Exclusion - Arginine A Attempt #23 (Inspired by Pi)]
- apparent KD of MS2 coat protein (input ligand: arginine 13.2 mM): 20.4 nM
- apparent KD of MS2 coat protein (input ligand: none): 21 nM
- apparent KD of MS2 coat protein [1]: 27.9 nM
- apparent KD of MS2 coat protein [3]: 24.9 nM
- apparent KD of MS2 coat protein [2]: 21.2 nM

Sequence: GGAUAGGACAGAAGGAGCGUGAGAUGCAAAGCUUCAUUCCUCACAUGAGGAUCACCCAUGUCACAGGUAGGUCGCUGUCCUAUCG [#19 Exclusion - Arginine B]
- apparent KD of MS2 coat protein (input ligand: arginine 13.2 mM): 78.6 nM
- apparent KD of MS2 coat protein (input ligand: none): 102 nM
- apparent KD of MS2 coat protein [1]: 106 nM
- apparent KD of MS2 coat protein [3]: 111 nM
- apparent KD of MS2 coat protein [2]: 78.9 nM

Sequence: UGACAUUGCUGCGAUACCAGACAUGAGGAUCACCCAUGUACCAAGGUACCCGAAAGGAAUGUCCCUUGGCAGCGCAGCAAUGUCU [MAT - Exclusion Theophlline B - Mod of Eli - D18]
- apparent KD of MS2 coat protein (input ligand: arginine 13.2 mM): 10.6 nM
- apparent KD of MS2 coat protein [1]: 11.6 nM
- apparent KD of MS2 coat protein [2]: 9.73 nM

Sequence: GGUAGACGGACGGCCGCCACUCACAUGAGGAUCACCCAUGUAUAGUUGGUAAUCUGGGUUCAGGAGAGGACCGGGUCCUUGUCAG [theeternabot_exclusion_MS2_Trp_B_43]
- apparent KD of MS2 coat protein (input ligand: arginine 13.2 mM): 34.3 nM
- apparent KD of MS2 coat protein (input ligand: none): 18.4 nM
- apparent KD of MS2 coat protein [1]: 23.2 nM
- apparent KD of MS2 coat protein [3]: 24.3 nM
- apparent KD of MS2 coat protein [2]: 23.3 nM

Sequence: UGUUUUUAUCGAAGGAGCGCCGCAUGAGGAUCACCCAUGCACAUGAGGAUCACCCAUGUCUGGCAGGUAGGUCGCGAUCAAUGGG [Same State Arginine B GF 11]
- apparent KD of MS2 coat protein (input ligand: arginine 13.2 mM): 33.7 nM
- apparent KD of MS2 coat protein (input ligand: none): 41.9 nM
- apparent KD of MS2 coat protein [1]: 48.7 nM
- apparent KD of MS2 coat protein [3]: 47.9 nM
- apparent KD of MS2 coat protein [2]: 44.3 nM

Sequence: CCGCACAUGAGGAUCACCCAUGUCAGGGAUACCAGCCCAGACAUGGGCCCUUGGCAGCUUUGUAGCUGACGAAAGUCAGCAGCGG [Omei Theo A SS A v2]
- apparent KD of MS2 coat protein (input ligand: arginine 13.2 mM): 17.6 nM
- apparent KD of MS2 coat protein (input ligand: none): 33.6 nM
- apparent KD of MS2 coat protein [1]: 62.3 nM
- apparent KD of MS2 coat protein [3]: 101 nM
- apparent KD of MS2 coat protein [2]: 59.2 nM

Sequence: UGCAUCAUAAUCAUGUAGGUGCUAGGUGAUACCAGCAUCGAAAGAUGCCCUUGGCAGCACCAACAUGAGGAUCACCCAUGUAAUA [(MT)''-(M)'-(T')-(Theo)-(Ms2)_Design1/22_1]
- apparent KD of MS2 coat protein (input ligand: arginine 13.2 mM): 48.4 nM
- apparent KD of MS2 coat protein [1]: 186 nM
- apparent KD of MS2 coat protein [2]: 231 nM

Sequence: UUAUAUACUACGGCCGCCACUGAACAUGAGGAUCACCCAUGUAAUGUUCAGAUUUUUUUUUUUUACAGGACCGGGUAGAAUUAAA [Tryptophan B 2]
- apparent KD of MS2 coat protein (input ligand: arginine 13.2 mM): 67.9 nM
- apparent KD of MS2 coat protein [1]: 127 nM
- apparent KD of MS2 coat protein [3]: 206 nM

Sequence: ACAAGUCCUCAUGAUACCAGCGAUGAGACAAAGUCUCAACAUGAGGAUCACCCAUGUACUCGCCCUUGGCAGCAUACGGUUUUUG [Onedxequla]
- apparent KD of MS2 coat protein (input ligand: arginine 13.2 mM): 139 nM
- apparent KD of MS2 coat protein [1]: 373 nM
- apparent KD of MS2 coat protein [2]: 573 nM

Sequence: CAUACUUGAUCCUAUGAGCCUAUUUGUGAUACCAGCAUCUAAAUUUGCCCUUGGCAGCACUAACAUGAGGAUCACCCAUGUUAUA [JR_Nu_ExcTheophyA_Sub028]
- apparent KD of MS2 coat protein (input ligand: arginine 13.2 mM): 23.7 nM
- apparent KD of MS2 coat protein [1]: 42.5 nM
- apparent KD of MS2 coat protein [2]: 37 nM

Sequence: GGGACACCGGGAAGGAGCGCAUCCAAACCACACAUGAGGAUCACCCAUGUAUAAAUAUGCAUGCAGGUAGGUCGCCCGAUGUCUC [Anrearradi]
- apparent KD of MS2 coat protein (input ligand: arginine 13.2 mM): 60.9 nM
- apparent KD of MS2 coat protein (input ligand: none): 90.7 nM
- apparent KD of MS2 coat protein [1]: 121 nM
- apparent KD of MS2 coat protein [3]: 120 nM
- apparent KD of MS2 coat protein [2]: 110 nM

Sequence: AUCCUUAAUAGGGUAAAUGGAUAAAGUGAUACCAGUCAAAUACAAGACCCUUGGCAGCACAAGGACAUGAGGAUCACCCAUGUCA [Same State Theophylline A GF21]
- apparent KD of MS2 coat protein (input ligand: arginine 13.2 mM): 20.9 nM
- apparent KD of MS2 coat protein [1]: 22 nM
- apparent KD of MS2 coat protein [2]: 21.6 nM

Sequence: AGACAUGAGGAUCACCCAUGUAGUAUGGAUACCAGAUCCAGAUUUAUCCCUUGGCAGCUGUGGUACAGCGAUGGAUUGCUCCUAG [Exclusion - Theophylline A (Freestyle 10)]
- apparent KD of MS2 coat protein (input ligand: arginine 13.2 mM): 33.5 nM
- apparent KD of MS2 coat protein [1]: 48.5 nM
- apparent KD of MS2 coat protein [2]: 39.2 nM

Sequence: AUACAUGAGGAUCACCCAUGUAUGGAUGAAGGAGCGACCAGAGGGUCAGGUAGGUCGCAUCACAUGAGGAUCACCCAUGUAGAAA [DOUBLE!!! :-D #11]
- apparent KD of MS2 coat protein (input ligand: arginine 13.2 mM): 20.3 nM
- apparent KD of MS2 coat protein (input ligand: none): 23.4 nM
- apparent KD of MS2 coat protein [1]: 25.2 nM
- apparent KD of MS2 coat protein [3]: 26.1 nM
- apparent KD of MS2 coat protein [2]: 24 nM

Sequence: UUUUUUAUCAUGGCGUAUCGGAAAACCGAUACCAGUACAGAAAUGUACCCUUGGCAGCGGCGUUUUACAUGAGGAUCACCCAUGU [Ex Theophylline A 4]
- apparent KD of MS2 coat protein (input ligand: arginine 13.2 mM): 15.1 nM
- apparent KD of MS2 coat protein [1]: 23.7 nM
- apparent KD of MS2 coat protein [2]: 14.9 nM

Sequence: AUGCUUGUCAGAAGGAGCGUCUUUAACAUGAGGAUCACCCAUGUAUCAUGGAAUUUGAUGAGACAGGUAGGUCGCUGAAUAGUAA [JR_SSArginiB_Sub021]
- apparent KD of MS2 coat protein (input ligand: arginine 13.2 mM): 30 nM
- apparent KD of MS2 coat protein (input ligand: none): 29.8 nM
- apparent KD of MS2 coat protein [1]: 42.7 nM
- apparent KD of MS2 coat protein [3]: 34.5 nM
- apparent KD of MS2 coat protein [2]: 25.7 nM

Sequence: GCUGUACCAUGAAGGAGCGCUUUAAUUAUAGAAGAUACAUGAGGAUCACCCAUGUUCCUCGAGCAGGUAGGUCGCAUGGUACAGC [SSAB #18]
- apparent KD of MS2 coat protein (input ligand: arginine 13.2 mM): 25.4 nM
- apparent KD of MS2 coat protein (input ligand: none): 20.3 nM
- apparent KD of MS2 coat protein [1]: 33 nM
- apparent KD of MS2 coat protein [3]: 27 nM
- apparent KD of MS2 coat protein [2]: 22.9 nM

Sequence: UUUGAUAGGACAGAUACCAGCGUGUUGUAGAACAUGAGGAUCACCCAUGUAGUGAUCAAGCGCCCUUGGCAGCUGGUUUGUUAGG [7.L]
- apparent KD of MS2 coat protein (input ligand: arginine 13.2 mM): 184 nM
- apparent KD of MS2 coat protein [1]: 350 nM
- apparent KD of MS2 coat protein [2]: 363 nM

Sequence: ACGUCAACCCUUAUGUUGAUGCAAGACGAUACCAGCCUGGAUACAGGCCCUUGGCAGCGUCAACAUGAGGAUCACCCAUGUAAUA [(T)''-(MT)'-(Theo)-(Ms2)]
- apparent KD of MS2 coat protein (input ligand: arginine 13.2 mM): 32.2 nM
- apparent KD of MS2 coat protein [1]: 261 nM
- apparent KD of MS2 coat protein [2]: 45.3 nM

Sequence: AUGCGGUGCGGAAGGAGCGAGUUUGCCUAUUUACAUGAGGAUCACCCAUGUCCUAAUGGGACUCAGGUAGGUCGCCGUUGUCGCA [Same State Arginine B GF 29]
- apparent KD of MS2 coat protein (input ligand: arginine 13.2 mM): 47.7 nM
- apparent KD of MS2 coat protein (input ligand: none): 45.5 nM
- apparent KD of MS2 coat protein [1]: 65.5 nM
- apparent KD of MS2 coat protein [3]: 49.9 nM
- apparent KD of MS2 coat protein [2]: 52.1 nM

Sequence: UCCACAUGAGGAUCACCCAUGUGCCAUGAUACCAGACAUGAAAAUGUCCCUUGGCAGCAUGAGUGAGGCAUCCGAAAGGAUGCCU [Chrlice]
- apparent KD of MS2 coat protein (input ligand: arginine 13.2 mM): 149 nM
- apparent KD of MS2 coat protein (input ligand: none): 157 nM
- apparent KD of MS2 coat protein [1]: 260 nM
- apparent KD of MS2 coat protein [3]: 38.3 nM
- apparent KD of MS2 coat protein [2]: 409 nM

Sequence: GGUUAGGUUUUUGAUACCAGCUAUUGGUGUCAUCUGAGGAUCACCCAGGUCUUGUGUUUUAGCCCUUGGCAGCAAAAGUUUAGUC [SSTheo B #28]
- apparent KD of MS2 coat protein (input ligand: arginine 13.2 mM): 72.6 nM
- apparent KD of MS2 coat protein (input ligand: none): 88.4 nM
- apparent KD of MS2 coat protein [1]: 118 nM
- apparent KD of MS2 coat protein [3]: 94.1 nM
- apparent KD of MS2 coat protein [2]: 108 nM

Sequence: AUUCAGAGAUCACAUGAGGAUCACCCAUGUCGAGGACCGGUACGGCCGCCACUCGCGGCGGUGAAAAUAGAUACAAAGUAUCUAU [Ex_TrypA - Vienna approves #2]
- apparent KD of MS2 coat protein (input ligand: arginine 13.2 mM): 25.5 nM
- apparent KD of MS2 coat protein (input ligand: none): 50 nM
- apparent KD of MS2 coat protein [1]: 61.8 nM
- apparent KD of MS2 coat protein [3]: 45.9 nM
- apparent KD of MS2 coat protein [2]: 284 nM

Sequence: ACGUAGAAGUCGGCCGCCACUGAUUUCAUGUUCAACAUGAGGAUCACCCAUGUACCUUAUGUUAACAGGACCGGGACGUAUACGA [JR_SSTryptoB_Sub001]
- apparent KD of MS2 coat protein (input ligand: arginine 13.2 mM): 228 nM
- apparent KD of MS2 coat protein [1]: 303 nM
- apparent KD of MS2 coat protein [3]: 442 nM
